Reference: US8840892B2, “Method of administering antibiotic therapy for treating intracellular infectious diseases” (Universidad Nacional Autónoma de México, priority 2003, dated 2014)

Legend:
[1] = mouse, in vivo
PGE formation (COX-2) = assay: inhibition of PGE formation by selective COX-2 inhibitors
[2] = test system: Mycobacterium tuberculosis; assay: experimental model of pulmonary tuberculosis in BALB/c mice; assay type: in vivo
TGF-β = settings: recombinant soluble form, in vitro; cited from earlier work

For `COc1ccc2c(c1)c(CC(=O)O)c(C)n2C(=O)c1ccc(Cl)cc1` [indometacine], which gastric side effect [1] is on record?
The gastric side effect was “extensive erosive gastritis”.

Which “inhibition of the formation of PGE” value (PGE formation (COX-2)) does the source give for `O=C(O)c1cccnc1Nc1cccc(C(F)(F)F)c1` [niflumic acid, reference compound] here?
The value was 98%.

And the “bacteria colony forming units (CFU) in lung” value ([2]; mouse, in vivo)?
Its value is “decreased significantly”.

What about the “decrease of the area affected by pneumonia in relation to the control group” value ([2]; mouse, in vivo) of the same molecule?
Its value is 25%.

What about the “expression of IL-2, TNF-α, IFN-γ and nitric acid synthetase (increase) and interleukin 10 (decrease)” value ([2]; mouse, in vivo) of the same molecule?
The value was “same pattern”.

B1: soluble betaglycan: soluble (recombinant) ectodomain of betaglycan, TGF-β type III receptor; natural antagonist of TGF-β (protein, UniProt Q03167 21-787, looked up)
extracellular domain: GPEPGALCELSPVSASHPVQALMESFTVLSGCASRGTTGLPQEVHVLNLRTAGQGPGQLQREVTLHLNPISSVHIHHKSVVFLLNSPHPLVWHLKTERLATGVSRLFLVSEGSVVQFSSANFSLTAETEERNFPHGNEHLLNWARKEYGAVTSFTELKIARNIYIKVGEDQVFPPKCNIGKNFLSLNYLAEYLQPKAAEGCVMSSQPQNEEVHIIELITPNSNPYSAFQVDITIDIRPSQEDLEVVKNLILILKCKKSVNWVIKSFDVKGSLKIIAPNSIGFGKESERSMTMTKSIRDDIPSTQGNLVKWALDNGYSPITSYTMAPVANRFHLRLENNAEEMGDEEVHTIPPELRILLDPGALPALQNPPIRGGEGQNGGLPFPFPDISRRVWNEEGEDGLPRPKDPVIPSIQLFPGLREPEEVQGSVDIALSVKCDNEKMIVAVEKDSFQASGYSGMDVTLLDPTCKAKMNGTHFVLESPLNGCGTRPRWSALDGVVYYNSIVIQVPALGDSSGWPDGYEDLESGDNGFPGDMDEGDASLFTRPEIVVFNCSLQQVRNPSSFQEQPHGNITFNMELYNTDLFLVPSQGVFSVPENGHVYVEVSVTKAEQELGFAIQTCFISPYSNPDRMSHYTIIENICPKDESVKFYSPKRVHFPIPQADMDKKRFSFVFKPVFNTSLLFLQCELTLCTKMEKHPQKLPKCVPPDEACTSLDASIIWAMMQNKKTFTKPLAVIHHEAESKEKGPSMKEPNPISPPIFHGLDTLTV
modifications: extracellular domain
Which results are given for B1?
extent of pneumonia (in words) ([2]; advanced phase of infection): increased; bacteria colony forming units (CFU) in lung ([2]; after 30 days of treatment, vs untreated control): decreased significantly; CFU less than control group ([2]; after 60 days of treatment): 50%; more pneumonia than the control group ([2]; after two months of treatment, increase vs untreated control): 30%; bacillary load / amount of tuberculosis bacilli in the lung (in words) ([2]; intraperitoneal, advanced phase of the disease): significant decrease; neutralization of the effects of TGF-β (TGF-β): potent neutralizing agent
